According to patent publication US9102758B2, “Insulin-oligomer conjugates, formulations and uses thereof” (priority 2004, dated 2015):
Where two headings read alike, the source gives them in different places.

What was measured:
chymotrypsin enzyme [1] = assay: In vitro enzyme resistance (chymotrypsin) of HIM2 and its complexes; conditions: chymotrypsin digest, 37° C., pH about 7.4
Description: Lyophilized chymotrypsin enzyme was resuspended in 1 mM HCl to a concentration of 7.53 U/mL. A 1.53 mL aliquot of each sample was added to sample tubes and 0.850 mL into control tubes. Samples were tested in duplicate along with four control tubes per sample. […] Then 17 μL of chymotrypsin enzyme was added to each sample tube. Five μL of 1 mM HCl was added to each control tube. Immediately following the additions, 200 μL was removed from the sample and the control tubes and placed into 50 μL of 1% TFA previously aliquoted out into centrifuge tubes. This sample serves as T=0.
(§1) The control procedure was repeated at the following intervals: 0, 8, 15, 30 minutes. For T-type and R-type samples, the procedure was repeated at the following intervals: 0, 5, 8, 12, 30, 40 and 60 minutes. The control procedure for the Zn complexes was repeated at the following intervals: 0, 12, 40 and 60 minutes. Samples were stored at −20° C. until analysis can occur via HPLC. HPLC was performed to determine percent degradation relative to the respective T=0 minute for each digest. The natural log of the percent remaining was plotted versus time and a linear regression run for each digest. The half life was calculated using the equation: t=−0.693/slope.

male CF-1 mice = assay: Extended Mouse Blood Glucose Assay (MBGA); type: in vivo; conditions: subcutaneous
Description: Six paired-dose groups of 5 male CF-1 mice (Charles River Laboratories; 25-30 g) received subcutaneous injections of either the insulin compound conjugate (test article) or recombinant human insulin. The test article was reconstituted with phosphate buffer (0.01 M, a pH of about 7.4) containing 0.1% w/w bovine serum albumin and dosed at 100, 66.6, 43.3, 30, 20, and 13.3 μg/kg. Insulin compound was reconstituted with phosphate buffer (0.01 M, a pH of about 7.4) containing 0.1% w/w bovine serum albumin and dosed at 50, 33.3, 21.7, 15, 10, and 6.7 μg/kg. […] Blood samples were collected in heparin tubes for glucose assay. If glucose assay was delayed, the tubes were stored in ice water and re-warmed to room temperature before assay.
Plasma glucose was measured with a glucometer (e.g., One Touch® Basic; Lifescan), which was calibrated at the beginning of each day of use according to the manufacturer's instructions. The potency of the insulin compound conjugate was then calculated relative to the standard curve that was generated for the recombinant human insulin response. Calculations were based upon the assumption that recombinant human insulin has a potency of 27.4 IU/mg.

chymotrypsin enzyme [2] = test system: chymotrypsin enzyme
Description: Lyophilized chymotrypsin enzyme was resuspended in 1 mM HCl to a concentration of ˜7.53 U/mL. A 1.53 mL aliquot of each sample was added to sample tubes and 0.850 mL into control tubes. Samples were tested in duplicate along with four control tubes per sample. […] Then 17 μL of chymotrypsin enzyme was added to each sample tube. Five μL of 1 mM HCl was added to each control tube. Immediately following the additions, 200 μL was removed from the sample and the control tubes and placed into 50 μL of 1% TFA previously aliquoted out into centrifuge tubes. This sample serves as T=0.
as §1

[3] = type: physicochemical
Description: Two hundred microliters of 0.1M Phosphate Buffer Saline (PBS, filtered, pH=7.4) was added to a 1 mL conical reaction vial. To this vial, a small amount of sample was added slowly until saturation is observed. Periodically, the solution was vortexed. […] After centrifugation, 10 μL of the sample was removed from the supernatant and diluted in 490 μL buffer (0.1 M PBS). This diluted sample was analyzed via HPLC to determine its' concentration.

Question: Which T half (chymotrypsin enzyme [1]; 0.3 mg/mL protein) does the source give for “HIM2 (R-type zinc complex): R-type zinc complex of HIM2, 1.1% w/w zinc” here?
Answer: The T half was 19 to 21 min.

Question: Which “glucose lowering effect at 30 and 90 minutes post dose” value (male CF-1 mice) does the source give for “HIM2 (R-type zinc/protamine complex): R-type zinc complex of HIM2 with protamine” here?
Answer: Its value is “greater glucose reduction at 30 minutes than 90 minutes”.

Question: What about the T half (chymotrypsin enzyme [1]; 0.6 mg/ml protein) of the same substance?
Answer: The T half was 95 to 120 min.

Question: Which T half (chymotrypsin enzyme [1]; 0.3 mg/mL protein) does the source give for “HIM2 (T-type zinc complex): T-type zinc complex of HIM2, 0.55% w/w zinc” here?
Answer: The T half was 12 to 15 min.

Question: For “HIM2: human insulin monoconjugate with a modifying moiety coupled at B29”, which “biopotency (MBGA) on complexation with Zn++” value (male CF-1 mice; plasma glucose 30 minutes post dose, relative to recombinant human insulin) is on record?
Answer: The value was “not significantly reduced”.

Question: Which T half (chymotrypsin enzyme [2]) does the source give for “IN105 (T-type zinc complex): T-type Zn complex of IN105, 1.88% w/w zinc; same zinc content as reaction 9.5.3” here?
Answer: The T half was 54.8 min.

Question: Which “Solubility” value ([3]; pH 7.4) does the source give for “Reaction 9.3.3: R-type Zn Complex of HIM2 with Protamine at Acidic pH” here?
Answer: The value was 36.78 mg/mL.

Question: Which “Solubility (mg/mL) in a pH of about 7.4, 0.1M phosphate buffer” value [3] does the source give for “Reaction 9.5.1: T-Type Zn Complex of IN105 Monoconjugate (10 g/L Concentration)” here?
Answer: Its value is 80-85 mg/mL.

Question: Which “Solubility (mg/mL) in a pH of about 7.4, 0.1M phosphate buffer” value [3] does the source give for “Reaction 9.5.2: T-Type Zn Complex of IN105 Monoconjugate (1 g Scale)” here?
Answer: Its value is 10-20 mg/mL.

Question: Which “Solubility” value [3] does the source give for “Reaction 9.6.2: R-Type Zn Complex of IN105 Conjugate at 5 g Scale” here?
Answer: Its value is 10 to 25 mg/mL.
